Laboratory results taken from patent publication US20240377400A1, “METHODS FOR TREATING A SUBTYPE OF COLORECTAL CANCER” (Cornell University, priority 2021, published 2024).

Tests used:
[1] = system: tumors from Prkci^fl/fl Prkcz^fl/fl Villin-cre (DKO) mice; assay: scRNAseq and IHC of DKO mouse intestinal tumors treated with PVHA or Galunisertib; type: in vivo
Procedure: FIG. 3A illustrates the experimental design: Prkci^fl/flPrkcz^fl/fl (DKO) mice were treated either with PVHA (0.0375 mg/Kg twice per week) or Galunisertib (10 mg twice daily) as described. Intestinal tumors were analyzed by scRNAseq.
To identify the mechanism of action of PVHA in the treatment of CMS4 tumors, scRNAseq was performed using 10× Genomics Chromium platform on tumors from Prkci^fl/fl Prkcz^fl/fl Villin-cre (DKO) mice (n=5) treated with PVHA for 14 weeks (n=3), as compared to those treated with Galunisertib (GAL) for 17 weeks (n=3), as shown in experimental design (FIG. 3A). Unsupervised clustering identified tumor and normal epithelial cells as well as stromal and immune cells with selective markers for each population (FIGS. 3B-3C). […] Among tumor clusters (0,4,6), a cell population with transcriptomic similarities to the recently identified “revival stem cells” (RSC; high Clu) in the vehicle treated tumors was identified (FIGS. 3F-3G).

MTO-sgPrkci/sgPrkcz = assay: PEGPH20 treatment in vitro of mouse tumor organoids, qPCR; type: cell-based; conditions: PEGPH20 2.5 μg/ml every other day for 6 days
Description: To perform PRKCI and PRKCZ editing in PDOs, single-guide RNA sequences targeting PRKCI and PRKCZ (Table 3), were purchased from Synthego and transduced into PDOs with recombinant Streptococcus pyogenes Cas9 protein (Truecut Cas9 Protein v2, Thermo. To knock out Prkcz in mouse sgPrcki MTOs (Linares et al., 2021), single-guide RNA sequence targeting Prkcz (Table 3) was purchased from Synthego and transduced into sgPrcki MTOs as described above. PRKCI, PRKCZ, and Prkcz were knocked out using the Neon Transfection System 1 (Invitrogen) following the manufacturer's protocol and single clones were expanded and screened by protein immunoblotting. For the deletion of Prkci and Prkcz in normal organoids, 500 nM 4-OH-tamoxifen was added the second day after organoids were passaged. […]
Total RNA from cultured organoids was extracted using TRIZOL reagent (Invitrogen) and purified by the RNeasy Mini Kit (QIAGEN), followed by DNase treatment. After quantification using a Nanodrop 1000 spectrophotometer (Thermo Scientific), RNA was either processed for RNA-seq or reverse-transcribed using random primers and MultiScribe Reverse Transcriptase (Applied Biosystems). Gene expression was analyzed by amplifying 500 ng of the complementary DNA using the CFX96 Real Time PCR Detection System with SYBR Green Master Mix (BioRad) and primers described in Table 2. […]

[2] = system: MTO-sgPrkci/sgPrkcz tumors; assay: Subcutaneous MTO-sgPrkci/sgPrkcz tumors in syngeneic C57BL/6J mice treated with PEGPH20; type: in vivo, mouse
Procedure: FIGS. 8F-8J illustrate subcutaneous injection of sgPrkci/Prkcz and sgC MTOs in WT mice. Mice were treated twice a week with Veh or PEGPH20 0.0375 mg/kg for 3 weeks (MTOs: sgC n=10, sgC PEGPH20-treated n=10, sgPrkci/Prkcz n=10, and sgPrkci/Prkcz PEGPH20-treated n=8). Experimental design (F); Immunohistochemistry (IHC) for HA, Masson's trichrome, and αSMA (G) staining quantification (H); tumor volume (I) and tumor weight (J). Scale bars, 100 μm.
For colonoscopy-guided orthotopic injection in the colon submucosa using mouse tumor organoids (MTOs), a 10 μl organoid suspension of equivalent to 40-50 MTOs admixed with 10% Matrigel (Corning) was directly injected into the colonic submucosa of 7 weeks old C57BL/6 mice. 4 weeks after implantation, tumors were collected and analyzed histologically. Orthotopic tumor sizes were measured by caliper after mice were sacrificed. For xenografts using MTOs, a 100 μl cell suspension of equivalent to 0.5×10^6 cells of sgPrkci/Prkcz or sgC MTOs admixed with 30% Matrigel (Corning) was directly injected subcutaneously into the right flank of 7 weeks old C57BL/6 mice. Tumors were allowed to grow for 14 days, and mice were randomly divided to receive vehicle, n=20, or PEGPH20 (0.0375 mg/kg, 2 days each week) via retro-orbital injection, n=18. Tumors were measured twice a week. Mice were euthanized three weeks after treatment and tumors were analyzed histologically. For the combination therapy of anti-PD-L1 (Clone B7-H1, Bioxcell) antibody and PEGPH20, mice were injected with a dose of 5 mg/kg (body mass) of anti-PD-L1 antibody in combination with PEGPH20 (n=15) twice a week for 4 weeks until they were sacrificed.
To address the potential role of HA stromal accumulation in the tumorigenesis of intestinal mesenchymal tumors in vivo, mouse tumor organoids (MTO) with mutations in Apc, Trp53, Kras, and Tgfbr2 (Tauriello et al., 2018) and with deletion of Prkci and Prkcz by CRISPR/Cas9 were characterized. MTO-sgPrkci/sgPrkcz recapitulated the observed phenotype in human organoids showing in vitro upregulation of Has1, Has2, and Has3 transcripts, increased expression of HA, and enrichment in EMT and TGFβ signaling signatures (FIGS. 8A-8E). […] Next, the impact of depleting HA on tumorigenesis was tested. To that end, MTO-sgPrkci/sgPrkcz or MTO-sgC were subcutaneously transplanted into syngeneic C57BL/6J mice and treated with a low dose of clinical-grade pegylated hyaluronidase (PEGPH20; 0.0375 mg/Kg), equivalent to a human dose evaluated in clinical trials, or with vehicle (FIG. 8F).

B1: PEGPH20: a PEGylated version of human recombinant PH20 hyaluronidase; clinical-grade pegylated hyaluronidase (Halozyme Therapeutics) (protein, UniProt P38567 36-490, looked up)
Hyaluronidase PH-20: LNFRAPPVIPNVPFLWAWNAPSEFCLGKFDEPLDMSLFSFIGSPRINATGQGVTIFYVDRLGYYPYIDSITGVTVNGGIPQKISLQDHLDKAKKDITFYMPVDNLGMAVIDWEEWRPTWARNWKPKDVYKNRSIELVQQQNVQLSLTEATEKAKQEFEKAGKDFLVETIKLGKLLRPNHLWGYYLFPDCYNHHYKKPGYNGSCFNVEIKRNDDLSWLWNESTALYPSIYLNTQQSPVAATLYVRNRVREAIRVSKIPDAKSPLPVFAYTRIVFTDQVLKFLSQDELVYTFGETVALGASGIVIWGTLSIMRSMKSCLLLDNYMETILNPYIINVTLAAKMCSQVLCQEQGVCIRKNWNSSDYLHLNPDNFAIQLEKGGKFTVRGKPTLEDLEQFSEKFYCSCYSTLSCKEKADVKDTDAVDVCIADGVCIDAFLKPPMETEEPQIFYNASPSTLS
modifications: PEGylated
numbers of inferred interactions of tumor epithelial cells with immune cells ([1]; CellphoneDB, as compared to GAL treatment): higher
Cd81+Pdgfra− fibroblast around the Crypt, IHC ([1]; DKO intestine): induction
Trophocyte-like fibroblast cluster (Cd34, Cd81) ([1]; scRNAseq): strongly increased
Cd8 T cells, cell type proportion ([1]; scRNAseq T cells): increase
proportion of Treg ([1]; scRNAseq T cells): reduce
fibroblast clusters associated with human CRC (Grem1/Sfrp1, Igf1/Cxcl14), CMS4 subtype (Sfrp2) and tumor initiation (Ptgs2/Spp1) ([1]; scRNAseq cell-type proportion): complete elimination
tumor cells, cell percentage analysis ([1]; scRNAseq epithelial cells, compared to vehicle or GAL-treated): clear reduction
tumoral goblet population ([1]; scRNAseq goblet cells): reduction
T cells, cell-type proportion ([1]; scRNAseq immune cells): increase
myeloid cells, cell-type proportion ([1]; scRNAseq immune cells): decrease
TAN1 (anti-tumoral neutrophils) ([1]; scRNAseq myeloid cells): increased
TAN2 (pro-tumoral neutrophils) ([1]; scRNAseq myeloid cells): reduced
proportion of dendritic cells ([1]; scRNAseq myeloid cells): increased
percentage of stromal and immune cells ([1]; scRNAseq, PVHA 0.0375 mg/Kg twice per week, 14 weeks, Galunisertib 10 mg twice daily, 17 weeks): decreased
mature goblets proportion ([1]; scRNAseq, as compared to GAL): increased
Lgr5 Stem Cells population ([1]; scRNAseq, population lost in the DKO intestine): recovered
number of stromal cells ([1]; scRNAseq, without apparent changes in cell-type proportions): reduced
Clu IHC ([1]; tumor area): decrease
immature goblets, IHC double staining for Alcian blue and Lyz1 ([1]; tumor area): reduction
Anxa10 expression (MTO-sgPrkci/sgPrkcz): reduced
Clu levels (MTO-sgPrkci/sgPrkcz): without changes
signatures related to invasion, tumor progression, and desmoplasia (EMT, myogenesis, angiogenesis, TGFβ signaling, stromal activation, CMS4 subtype) ([2]; GSEA of Quant-seq, treated versus Veh): decrease
IFN and allograft rejection signatures ([2]; GSEA of RNAseq, allografts from MTO-sgPrkci/sgPrkcz): enrichment
tumor volume and weight ([2]; PEGPH20 0.0375 mg/Kg twice a week, 3 weeks): sensitive
desmoplastic phenotype: expression of HA, collagen, and αSMA+ ([2]; PEGPH20 0.0375 mg/Kg twice a week, 3 weeks, IHC): reverted
